Measurements as given in publication PMC4427524 (Molecular cell, 2015).
Where no end group is shown, it is not given here.

These binders were tested against purified recombinant WDR5 (used for FPA) (UniProt P61964 1-334) (assay: fluorescence polarisation).

| Binder | Kd [µM] |
| --- | --- |
| DEEEEDEESV [MbIIIb mutant peptide WBM (I262/V264/V265 to glutamic acid)] | > 500 |
| DEEEIDGVSV [MbIIIb mutant peptide V264G] | > 500 |
| DEEEIDVVSV (also: FITC label (position not given here)) [FITC-labeled MbIIIb peptide (residues 258–267 of human c-MYC)] | 9.3 |
